One test concerns the target integrins. Put plainly: cell-based or functional assay.
In test [1] the target is coxsackievirus-adenovirus receptor (CAR) on 293, PC-3 and PC3-CAR cells (UniProt P78310). The test can be described thus: cell-based or functional assay.

A value given as a limit tells only on which side of the number the result lay.

Experimental findings from patent US9018138 are described below.

Turning to “CAR ablated and RGD4C re-targeted Fiber (ΔTAYT-RGD), displayed on the capsid of virus AdTrack-RGD4C-2 (from UniProt P11818 1-542; P11818 543-581)”, the infection relative to wild type fiber virus with integrins turned out to be 5%.

In test [1], “wild type Adenovirus Serotype 5 (Ad5) Fiber, displayed on the capsid of virus AdTrack-WTFib (from UniProt P11818 1-581)” had an infection of 293 cells after anti-CAR siRNA knock-down (GFP) of over 50% and an infection of PC3-CAR against PC-3 cells (GFP fluorescence intensity, MOI 100) of 26 fold.
